Patent publication US20240358849A1 (SUZHOU FUSE BIOSCIENCES, published 2024)
Changes are numbered by the printed parent chain. Names and notes keep the numbering of the source.

What was measured:
[1] = target: T1, IL-2hex, mutant human IL-2 (deltaA1/T3A/F42A/Y45A/L72G/C125S) (human, UniProt P60568 22-153); assay: not stated (legend of FIG. 7C)
T1 chain: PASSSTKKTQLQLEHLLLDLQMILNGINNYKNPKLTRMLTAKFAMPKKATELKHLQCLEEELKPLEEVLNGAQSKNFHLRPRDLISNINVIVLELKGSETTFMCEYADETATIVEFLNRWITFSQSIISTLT

[2] = target: human FAP expressed on cells (HEK 293T-hFAP-E5; ExpiCHO-hFAP) (human, UniProt Q12884 1-760); assay: cell-based or functional assay
[3] = target: T1, IL-2hex, mutant human IL-2 …; assay: cell-based or functional assay
[4] = target: T2, human Fibroblast Activation Protein (FAP), soluble antigen (human, UniProt Q12884 26-760, biotinylated when immobilized on streptavidin sensors); assay: Affinity (nM), Table 13B
T2 construct: also called hFAP; biotinylated FAP

[5] = target: T1, IL-2hex, mutant human IL-2 …; assay: Affinity (nM), Table 13B
[6] = target: T2, human Fibroblast Activation Protein …; assay: not stated (legend of FIG. 20B)
[7] = target: T1, IL-2hex, mutant human IL-2 …; assay: not stated (legend of FIG. 20B)
[8] = target: T2, human Fibroblast Activation Protein …; assay: not stated (legend of FIG. 18B)
[9] = target: T2, human Fibroblast Activation Protein …; assay: not stated (legend of FIG. 27C)
[10] = target: T2, human Fibroblast Activation Protein …; assay: BLI per 6.1.3, human FAP;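 on Kd: biolayer interferometry with immobilized antigen on sensors, antibody association up to 240 s then dissociation up to 420 s, reference-subtracted, global 1:1 fit with unlinked Rmax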;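 on kon: biolayer interferometry with immobilized antigen on sensors, antibody association up to 240 s then dissociation up to 420 s, reference-subtracted, global 1:1 fit with unlinked Rmax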
[11] = target: T2, human Fibroblast Activation Protein …; assay: BLI per 6.1.3, human FAP; remark: listed apart in the source;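 on Kd: biolayer interferometry with immobilized antigen on sensors, antibody association up to 240 s then dissociation up to 420 s, reference-subtracted, global 1:1 fit with unlinked Rmax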;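 on kon: biolayer interferometry with immobilized antigen on sensors, antibody association up to 240 s then dissociation up to 420 s, reference-subtracted, global 1:1 fit with unlinked Rmax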
[12] = target: T2, human Fibroblast Activation Protein …; assay: BLI; Table 11, antibody variants (Fab/scFv)
[13] = target: T3, human interleukin-2 (IL-2), wild type (human, UniProt P60568 21-153, biotinylated when immobilized); assay: BLI; Table 11, antibody variants (Fab/scFv)
T3 construct: also called biotinylated IL-2; IL2 WT

[14] = target: T1, IL-2hex, mutant human IL-2 …; assay: screening of phage libraries, monoclonal phage ELISA
[15] = target: T2, human Fibroblast Activation Protein …; assay: BLI, FAP on streptavidin sensor, monovalent Fab-Fc fusion of D002
[16] = target: T1, IL-2hex, mutant human IL-2 …; assay: not stated in the sentence (BLI value of FIG. 4B, there told for IL-2)
[17] = target: T3, human interleukin-2 (IL-2), wild type; assay: BLI, equilibrium binding analysis, biotinylated IL-2 on streptavidin sensor, monovalent Fab-Fc fusion of D002

T3 sequence (P60568 21-153): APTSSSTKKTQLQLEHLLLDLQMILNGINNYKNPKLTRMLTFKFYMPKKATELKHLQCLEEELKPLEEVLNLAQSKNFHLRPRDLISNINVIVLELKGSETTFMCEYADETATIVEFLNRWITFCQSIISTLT

B1: D029 mutant Fab of FB-559 (D029HV1 with D029 VL) (bispecific antibody, V domains shown)
VH: EVQLVESGGGLVQPGGSLRLSCAASGFTFTWSFMSWVRQAPGKGLEWVSWIGPSGLYTDYADSVKGRFTISRDNSKNTLYLQMNSLRAEDTAVYYCARSQYGRYYSPDYYFDYWGQGTLVTVSS
VL: DIQMTQSPSSLSASVGDRVTITCRASQDGGNYLNWYQQKPGKAPKLLIYGASTLYSGVPSRFSGSGSGTDFTLTISSLQPEDFATYYCQQGRTPPLTFGQGTKVEIKR
notes: The legend says only 'D029 mutant'
B1 showed a Kd [1] of about 400 nM.

B2: D029-HV1LV1 (bispecific antibody, V domains shown)
VH: B1 VH
VL: B1 VL with D28A, G29L, N31F, G50A, T53S, Y55S
notes: also called D029 Rev1/S55L; D029HVILV1 (so in the source)
B2 was tested, and the “EC50 of HEK-Blue IL2 assay (pM) with HEK 293T-hFAP-E5; variant as masking moiety of a configuration 3 immunoconjugate” value [2] was 42 pM, the “EC50 of HEK-Blue IL2 assay (pM) with HEK 293T; variant as masking moiety of a configuration 3 immunoconjugate” value [3] was 6060 pM and the Kd [4] was 1.8 nM. It also gave a Kd [5] of 427 nM, a Kd [6] of over 5000 nM and a Kd [7] of about 237 nM.

B3: anchoring moiety of FB-675 and FB-676: scFv872-5Dbl(S-S) (scFv, V domains shown)
VH: EVQLVESGGGLVQPGGSLRLSCAASGFTFRGYIMSWVRQAPGKGLEWVSWIGPEGSRTGYADSVKGRFTISRDNSKNTLYLQMNSLRAEDTAVYYCARLLYGTWFDYWGQGTLVTVSS
VL: DIQMTQSPSSLSASVGDRVTITCRASQSISSYLNWYQQKPGKAPKLLIYAASSLQSGVPSRFSGSGSGTDFTLTISSLQPEDFATYYCQQGTLLLPTFGQGTKVEIKR
modifications: disulfide to VH at VL residue 100; disulfide to VL at VH residue 44
notes: also called scFv872-5V1
Binder B3 has a Kd [8] of about 5 nM and a Kd [9] of about 50 nM.

B4: anti-FAP antibody 872-5V1 (antibody, V domains shown)
VH: B3 VH
VL: B3 VL
notes: KD by BLI per 6.1.3 (monovalent Fab-Fc)
For B4, the “improvement of the affinity over parent 872-5 (fold)” value [10] was over 80 fold, the Kd [11] was under 0.1 nM and the kon [11] was 625000 M⁻¹ s⁻¹.

B5: anti-IL-2/anti-FAP two-in-one antibody D001 (bispecific antibody, V domains shown)
VH: B1 VH with T30S, W31R, S32Y, F33S, W50A, G52S, S54Y, L56G, Y57G
VL: B3 VL with S28V, S30G, Y32S, T92R, L93S, L94Y, L95P, P96Y
notes: Fab/scFv or monovalent Fab-Fc
With B5 the Kd [12] was 30 nM, the Kd [13] was over 5000 nM and the binding result [14] was “binds”.

B6: anti-IL-2/anti-FAP two-in-one antibody D002 (bispecific antibody, V domains shown)
VH: EVQLVESGGGLVQPGGSLRLSCAASGFTFSRYSMSWVRQAPGKGLEWVSDISSYSTTYYADSVKGRFTISRDNSKNTLYLQMNSLRAEDTAVYYCARSQYGRYYSPDYYFDYWGQGTLVTVSS
VL: B3 VL with S30G, S31N, Y32S, T92R, L93R, L94S, L95P, P96F
B6 gave a Kd [15] of about 50 nM, a Kd [16] of about 3400 nM and a Kd [17] of 3400 nM.
